The record followed here is PMC3564486 (Developmental cell, 2011).

In general, Kd refers to the equilibrium constant for the complex coming apart. A high value points to lower affinity. As a reminder, the stoichiometry N is the number of molecules, sites or subunits per partner or assembly.

For one assay, the target named is T1, LRP6_(P3E3P4E4) W767A (human, UniProt O75581 629-1244, W767A).
T1 sequence (looked up): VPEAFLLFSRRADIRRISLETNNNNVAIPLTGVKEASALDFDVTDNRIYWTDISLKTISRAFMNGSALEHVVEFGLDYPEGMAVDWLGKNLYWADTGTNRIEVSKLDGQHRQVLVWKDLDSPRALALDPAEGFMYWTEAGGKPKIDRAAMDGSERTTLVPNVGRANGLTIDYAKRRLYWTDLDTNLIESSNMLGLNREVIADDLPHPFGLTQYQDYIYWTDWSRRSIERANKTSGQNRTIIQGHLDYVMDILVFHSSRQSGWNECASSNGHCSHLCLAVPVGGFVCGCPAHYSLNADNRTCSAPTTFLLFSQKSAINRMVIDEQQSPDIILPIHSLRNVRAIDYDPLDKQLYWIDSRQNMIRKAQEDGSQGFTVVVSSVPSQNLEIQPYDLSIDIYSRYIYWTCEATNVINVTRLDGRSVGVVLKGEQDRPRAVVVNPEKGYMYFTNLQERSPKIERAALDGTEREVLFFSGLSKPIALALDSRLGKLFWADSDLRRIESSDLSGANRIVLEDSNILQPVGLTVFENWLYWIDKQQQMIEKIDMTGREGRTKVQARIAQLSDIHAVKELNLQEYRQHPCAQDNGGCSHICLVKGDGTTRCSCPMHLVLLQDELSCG
As to the kind of experiment: SPR.

Another assay deals with T2, LRP6_(P3E3P4E4) E708A (human, UniProt O75581 629-1244, E708A).
T2 sequence (looked up): T1 sequence (looked up) with E80A, A139W
As to the kind of experiment: SPR. (In SPR one partner is held on a chip, and binding of the other changes the refractive index at the surface.)

A further assay has as its target T3, LRP6_(P3E3P4E4) N813A (human, UniProt O75581 629-1244, N813A).
T3 sequence (looked up): T1 sequence (looked up) with A139W, N185A
The experiment in a line: SPR.

Another assay deals with T4, LRP6_(P3E3P4E4) Y706A (human, UniProt O75581 629-1244, Y706A).
T4 sequence (looked up): T1 sequence (looked up) with Y78A, A139W
The experiment in a line: SPR.

Assay [1] has as its target T5, LRP6_(P3E3P4E4), wild type (human, UniProt O75581 629-1244).
T5 sequence (looked up): T1 sequence (looked up) with A139W
The experiment in a line: SPR.

Assay [2] concerns the target T6, LRP6 ectodomain (LRP6ECD) (human, UniProt O75581 20-1361).
T6 sequence (looked up): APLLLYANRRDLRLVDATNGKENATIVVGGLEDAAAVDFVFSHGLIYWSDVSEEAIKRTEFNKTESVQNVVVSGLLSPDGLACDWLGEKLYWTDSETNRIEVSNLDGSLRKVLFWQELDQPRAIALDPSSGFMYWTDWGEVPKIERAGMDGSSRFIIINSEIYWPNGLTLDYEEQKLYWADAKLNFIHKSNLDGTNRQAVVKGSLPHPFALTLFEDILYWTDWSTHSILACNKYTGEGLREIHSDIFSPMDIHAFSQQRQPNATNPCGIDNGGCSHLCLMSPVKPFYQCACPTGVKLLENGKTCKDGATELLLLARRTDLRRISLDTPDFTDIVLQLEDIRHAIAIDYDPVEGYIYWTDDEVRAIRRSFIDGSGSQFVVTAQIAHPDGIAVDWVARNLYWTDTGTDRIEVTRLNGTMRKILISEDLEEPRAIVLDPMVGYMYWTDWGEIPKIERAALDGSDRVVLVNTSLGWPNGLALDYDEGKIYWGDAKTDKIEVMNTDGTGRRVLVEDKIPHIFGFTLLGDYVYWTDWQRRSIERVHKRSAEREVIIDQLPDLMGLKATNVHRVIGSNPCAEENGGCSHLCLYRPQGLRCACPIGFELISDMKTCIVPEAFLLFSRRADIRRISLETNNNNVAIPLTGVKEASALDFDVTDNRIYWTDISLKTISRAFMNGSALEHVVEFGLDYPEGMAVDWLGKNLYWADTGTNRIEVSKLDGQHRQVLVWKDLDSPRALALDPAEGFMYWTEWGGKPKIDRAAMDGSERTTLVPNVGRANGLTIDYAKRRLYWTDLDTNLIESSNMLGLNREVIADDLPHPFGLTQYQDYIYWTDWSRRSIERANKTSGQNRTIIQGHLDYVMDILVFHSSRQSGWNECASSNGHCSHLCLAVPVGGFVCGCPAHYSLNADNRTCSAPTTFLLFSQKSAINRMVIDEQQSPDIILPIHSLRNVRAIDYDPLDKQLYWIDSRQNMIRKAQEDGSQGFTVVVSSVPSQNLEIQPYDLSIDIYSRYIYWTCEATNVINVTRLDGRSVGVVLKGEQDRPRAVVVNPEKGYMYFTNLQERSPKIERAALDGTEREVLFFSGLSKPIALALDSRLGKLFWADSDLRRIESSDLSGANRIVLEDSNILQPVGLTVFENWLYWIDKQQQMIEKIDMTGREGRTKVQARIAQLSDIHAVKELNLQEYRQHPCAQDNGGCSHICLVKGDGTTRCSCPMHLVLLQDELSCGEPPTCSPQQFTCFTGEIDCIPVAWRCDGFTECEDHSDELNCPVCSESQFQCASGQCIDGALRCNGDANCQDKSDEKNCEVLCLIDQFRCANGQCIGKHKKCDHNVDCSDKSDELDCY
As to the kind of experiment: SEC-MALS.

Positions count from the first letter of the chain named.

B1: Dickkopf 1 (Dkk1) (ligand, human, UniProt O94907 32-266, looked up)
chain: TLNSVLNSNAIKNLPPPLGGAAGHPGSAVSAAPGILYPGGNKYQTIDNYQPYPCAEDEECGTDEYCASPTRGGDAGVQICLACRKRRKRCMRHAMCCPGNYCKNGICVSSDQNHFRGEIEETITESFGNDHSTLDGYSRRTTLSSKMYHTKGQEGSVCLRSSDCASGLCCARHFWSKICKPVLKEGQVCTKHRRKGSHGLEIFQRCYCGEGLSCRIQKDHHQASNSSRLHTCQRH
For B1, the binding result with LRP6_(P3E3P4E4) W767A, with LRP6_(P3E3P4E4) E708A, with LRP6_(P3E3P4E4) N813A and with LRP6_(P3E3P4E4) Y706A was “binds” each time. Further, the Kd in assay [1] worked out at 0.058 µM.

B2: human Mesd with an internal Flag tag (co-expressed with LRP6ECD) (natural protein, UniProt Q14696-1 34-234, looked up)
chain: AEGSPGTPDESTPPPRKKKKDIRDYNDADMARLLEQWEKDDDIEEGDLPEHKRPSAPVDFSKIDPSKPESILKMTKKGKTLMMFVTVSGSPTEKETEEITSLWQGSLFNANYDVQRFIVGSDRAIFMLRDGSYAWEIKDFLVGQDRCADVTLEGQVYPGKGGGSKEKNKTKQDKGKKKKEGDLKSRSSKEENRAGNKREDL
Turning to B2, the “stoichiometry N” value in assay [2] came to 1.
